Experimental data as given in the supplement of paper PMC10567573.
± gives the standard deviation.

Assay: protein stability index of a GFP-peptide fusion (GPS, HEK-293T) (PSI 1-6); higher = more stable
[1] = treatment: DMSO, c terminus: a fixed tail appended
[2] = treatment: MLN4924 1 uM, 8 h, c terminus: a fixed tail appended
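Also: 24-mer peptide tiles fused after GFP, lentivirally expressed, FACS-sorted into six equal bins by GFP/DsRed ratio, decoded by Illumina sequencing, PSI is the read-weighted mean bin number.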

Sequence	protein stability index [1]	protein stability index [2]	protein stability index (treatment: DMSO, c terminus: native)	protein stability index (treatment: MLN4924 1 uM, 8 h, c terminus: native)
VTTEQLGAKMTERGSVARPTQGPE [PXN]	5.35 ± 0.17	5.14 ± 0.38	–	–
MPALEGAPHTPPLPRRPRKGSSEL [RNF208]	5.11 ± 0.27	5.21 ± 0.22	–	–
ELQSLMHQPKGLEEENAQLRGALQ [PBXIP1]	4.25 ± 0.23	4.04 ± 0.29	–	–
QLVLAYDYSREVNTTEELEALITD [FEM1A]	3.53 ± 0.28	3.8 ± 0.34	–	–
AFADIIHSLKESGQLWLDAYLHQ [FADS1]	–	–	2.7 ± 0.78	2.49 ± 0.58
RIAAVEALCMLAQSSPSFAEKCLD [INTS4]	2.46 ± 0.49	2.2 ± 0.53	–	–
LQIYQYVPKDQRLQAIKAAIMLLP [DLC1]	2.64 ± 0.62	2.41 ± 0.58	–	–
SRQLLPGDEFSLREHELLCRADHG [ISL2]	4.19 ± 0.17	4.27 ± 0.089	–	–
MGCTLSAEDKAAVERSKMIDRNLR [GNAI1]	4.64 ± 0.32	4.54 ± 0.1	–	–
PLVEKKRRARINESLQELRLLLAG [HES6]	2.63 ± 0.6	2.75 ± 0.73	–	–
LLPLQREPLYNWQATKASLKERFA [BTBD1]	2.8 ± 0.22	2.82 ± 0.2	–	–
ERVTVAKLTLENFYSNLILQHEER [STK38L]	2.85 ± 0.28	2.99 ± 0.31	–	–
LEFYRYYQQLKLEGPGEQETKLDL [SLC29A1]	2.953 ± 0.027	3.11 ± 0.35	–	–
YQELLRVCCCELGVNPDQVEKIRK [ANKRD40]	2.41 ± 0.51	2.55 ± 0.22	–	–
TQQTGTVRFDGYVIDGATALWCAA [FEM1B]	2.3 ± 0.11	2.22 ± 0.34	–	–
TDSPWIKPARKRRRRSRKKPSGAL [EHMT1]	5.2 ± 0.39	5.22 ± 0.47	–	–
VIDDAKQYVYIAVMDYLPISSTST [PLD5]	2.54 ± 0.95	2.76 ± 0.73	–	–
GGVMYISGGITHDTFQKELMCFDP [KLHL13]	2.23 ± 0.48	2.33 ± 0.54	–	–
PLVLTEVLFNEKIREQIKKYRRHF [EIF5]	2.31 ± 0.35	2.28 ± 0.33	–	–
VKELRPQLMTSQFISVFSNLLESK [ZER1]	2.38 ± 0.24	2.61 ± 0.44	–	–
YVQEKRDGLKRRQQLEEELLRAKI [RAD54B]	2.71 ± 0.66	3.38 ± 0.78	–	–
HPFYHCLVAEVPKEHWTPEGHSIV [SAT1]	2.76 ± 0.33	2.54 ± 0.25	–	–

Sequence	protein stability index [1]	protein stability index [2]	protein stability index (treatment: DMSO, c terminus: native)	protein stability index (treatment: MLN4924 1 uM, 8 h, c terminus: native)
SLKEEHRAYDLLRAASENSQDALR [IKZF1]	4.32 ± 0.52	4.36 ± 0.34	–	–
SKYQLSEAQLSLIRDIRRRGKNKM [NFE2L1]	3.69 ± 0.28	3.9 ± 0.54	–	–
HLVQHQRIHSGEKPYECNECGKAF [ZNF232]	3.65 ± 0.21	3.8 ± 0.098	–	–
EGASPLSERCQRQLQSLCRGLGLG [FANCE]	3.31 ± 0.13	3.02 ± 0.32	–	–
IAVAWIYGTKKFMQELTEMLGFRP [SLC6A17]	2.62 ± 0.78	2.1 ± 0.61	–	–
AMFRLEHGEADRSTLKKALPTLSH [YJU2B]	3.33 ± 0.16	3.38 ± 0.17	–	–
ARLMLESEYRSDIINAKSNDGWTP [ASB7]	2.65 ± 0.28	3.15 ± 0.15	–	–
FRLPGLSRREREPEPPAAVDFLEP [FCHO1]	4.24 ± 0.3	4.31 ± 0.33	–	–
AGGSARRPDTGDDAAGHGFCYCAG [GMCL1]	4.11 ± 0.46	4.13 ± 0.19	–	–
CFGLQPGCLLPDGSRMMAVAALVV [NLN]	2.47 ± 0.23	2.75 ± 0.34	–	–
KAIKARGEVIHCKLRAMKELSEAA [STX11]	3.32 ± 0.29	3.6 ± 0.2	–	–
NGTMTIDWNEWRDYHLLHPVENIP [SLC25A25]	3.18 ± 0.28	3.07 ± 0.19	–	–
GQIIKDIDSGSPAEEAGLKNNDLV [PDZK1]	5.31 ± 0.33	5.27 ± 0.079	–	–
RMEGSQEVVNMAVIVPKEEGVISV [WDFY2]	3.23 ± 0.36	3.45 ± 0.17	–	–
FGYRPYDKNISPRENILVSLGAVG [SCD]	2.03 ± 0.44	2.75 ± 0.53	–	–
VKAATTEPTEVEEVVPALEPTETL [BCL2L13]	5.65 ± 0.16	5.67 ± 0.14	–	–
KNHVGKPLLKMDLNSEQAEQLERI [FAM98B]	4.8 ± 0.16	4.67 ± 0.19	–	–
EPGNFIPLFTPQSPVTATLSDEDD [CDC25A]	5.56 ± 0.18	5.69 ± 0.13	–	–
CQALDANLDANLAFASFTSGVVRI [TLE6]	2.66 ± 0.67	2.56 ± 0.37	–	–
ARNNNDPGRLTEALCLEVRPTYFE [RNF180]	4.97 ± 0.23	4.96 ± 0.18	–	–
CEGKPYNQKSDIWALGCVLYELAS [NEK8]	3.08 ± 0.74	2.88 ± 0.72	–	–
HSVLVDDDGIKVVKVTFNKQDSLV [TMEM106C]	3.09 ± 0.27	3.18 ± 0.36	–	–

Sequence	protein stability index [1]	protein stability index [2]	protein stability index (treatment: DMSO, c terminus: native)	protein stability index (treatment: MLN4924 1 uM, 8 h, c terminus: native)
CTNTYVTGLSMIANGGAICAVTFF [OR4A15]	3.25 ± 0.52	3.33 ± 0.38	–	–
TVPADGYILELDDGNGGQFREVYV [TRIM9]	2.15 ± 0.24	2.2 ± 0.6	–	–
VLQMWHIVDKCTELLREGRASATT [ZBTB22]	2.19 ± 0.29	2.25 ± 0.41	–	–
ERIDCQGIPPSSKDKLGVWVYKNK [KLHDC2]	3.75 ± 0.23	3.64 ± 0.34	–	–
TNLTVTMDQLQGLGSDYEQPLEVK [CDC25A]	4.61 ± 0.16	4.69 ± 0.24	–	–
TEALGCDPPLSQDERTHRSDRPFK [ZNF8]	5.39 ± 0.28	5.26 ± 0.16	–	–
HTEASAQRSHMGKLKEPQPQDHKP	5.24 ± 0.71	5.24 ± 0.33	–	–
LAGAALEPAGGGRSREARSRLLLL [SMAD6]	3.38 ± 0.27	3.65 ± 0.31	–	–
LKPTFTKQQIANLDKQAKLSRAYD [USP39]	3.61 ± 0.11	3.74 ± 0.16	–	–
FSDDCDLPSAQDINRLVGLQNTYM [GLT8D2]	3.68 ± 0.26	3.66 ± 0.11	–	–
KAAQQGKQEENDVVEKLNLFLDLL [SNX8]	2.45 ± 0.076	2.64 ± 0.34	–	–
ELKKLKNLEGNELQRHADEFLLDL [FUT8]	3.61 ± 0.25	3.59 ± 0.3	–	–
YQLFEELGKGAFSVVRRCVKVLAG [CAMK2A]	2.9 ± 0.64	2.64 ± 0.39	–	–
QETPYLVKLPLPAERVTLADFKGV [DVL3]	3.25 ± 0.3	3.49 ± 0.18	–	–
RPRYKADVPDLQSVCSCTCYRSQD [KCNK9]	3.34 ± 0.41	3.67 ± 0.23	–	–
VTAKTAPDVLRTKPAFIGKTNLDG [PTPRD]	3.73 ± 0.4	4.06 ± 0.35	–	–
LKNGSMGSPVNQQPKKNNVMARTR [FAM219A]	3.96 ± 0.32	4.13 ± 0.27	–	–
GTTLVVGLLAGVGYFAFMLFRKRL [GDAP1]	2.41 ± 0.49	2.63 ± 0.22	–	–
GRLELKPLLLRLPRICQRNLMSLL [FANCE]	2.63 ± 0.33	2.7 ± 0.23	–	–
YTATEQEMQQQMSLGELCHPVPLS [TRIM14]	4.26 ± 0.23	4.14 ± 0.27	–	–
LNKCFIKVPREKDEPGKGGFWRID [FOXJ1]	2.98 ± 0.2	2.98 ± 0.096	–	–
